Measurements reported in paper PMC4939597, “Mechanism for insulin-like peptide 5 distinguishing the homologous relaxin family peptide receptor 3 and 4” (Scientific Reports, 2016).
No end group written: not given here.

What was measured:
human RXFP4 [1] = biological target: T1, human RXFP4 (Homo sapiens, UniProt Q8TDU9); experiment: Receptor binding assay, competition with NanoLuc-conjugated R3/I5 tracer; details: for pIC50 RXFP4: HEK293T cells transiently overexpressing human RXFP4, 0.5 nM NanoLuc-conjugated R3/I5 tracer, 21 °C, 2 h, mean ± SE, n = 3, SEM
T1 construct: expressed in transfected cells; host or cells: HEK293T
Experimental: (§1) Figure 3 Receptor binding activities of the mature INSL5 and R3/I5 mutants towards RXFP3 and RXFP4. A NanoLuc-conjugated R3/I5 peptide was used as tracer and HEK293T cells transiently overexpressing human RXFP3 or human RXFP4 were used as receptor source. The tracer concentration used in these assays was 0.5 nM. The nonspecific binding was obtained by competition with 1.0 μM of relaxin-3. The measured data were expressed as mean ± SE (n = 3) and fitted to sigmoidal curves using the software SigmaPlot 10.0.
(§2) The receptor binding assays of the mature INSL5 and R3/I5 mutants were carried out using a NanoLuc-conjugated R3/I5 peptide as tracer and the human embryonic kidney (HEK) 293T cells transiently overexpressing human RXFP3 or human RXFP4 as receptor source. Nonspecific binding was obtained by competition with 1.0 μM of human relaxin-3. Briefly, HEK293T cells were transiently transfected with the expression construct of human RXFP3 or human RXFP4. Next day, the transfected cells were trypsinised, seeded into a 96-well plate, and continuously cultured for 24–36 h to confluence. To start binding assay, the medium was removed and the binding solution (serum-free DMEM medium plus 1% bovine serum albumin) containing 0.5 nM of the NanoLuc-conjugated R3/I5 tracer and varied concentrations of competitor was added (100 μl/well). After incubation at 21 °C for 2 h, the binding solution was removed and the cells were washed twice by ice-cold phosphate-buffered saline (200 μl/well for each wash). Thereafter, the cells were lysed by lysis solution (100 μl/well, from Promega, Madison, WI, USA) and the cell lysate was transferred to a white opaque 96-well plate (50 μl/well). After mixing with the freshly diluted substrate (50 μl/well), bioluminescence was immediately measured on a SpectraMax M5 plate reader (Molecular Devices, Sunnyvale, CA, USA) using the luminescence mode. The measured bioluminescence data were expressed as mean ± SE (n = 3) and fitted to sigmoidal curves using the SigmaPlot10.0 software.

human RXFP3 = biological target: T2, human RXFP3 (Homo sapiens, UniProt Q9NSD7); experiment: as above; details: HEK293T cells transiently overexpressing human RXFP3; 0.5 nM NanoLuc-conjugated R3/I5 tracer; 21 °C, 2 h; mean ± SE, n = 3; SEM
T2 construct: expressed in transfected cells; host or cells: HEK293T
T2 sequence (Q9NSD7 1-469): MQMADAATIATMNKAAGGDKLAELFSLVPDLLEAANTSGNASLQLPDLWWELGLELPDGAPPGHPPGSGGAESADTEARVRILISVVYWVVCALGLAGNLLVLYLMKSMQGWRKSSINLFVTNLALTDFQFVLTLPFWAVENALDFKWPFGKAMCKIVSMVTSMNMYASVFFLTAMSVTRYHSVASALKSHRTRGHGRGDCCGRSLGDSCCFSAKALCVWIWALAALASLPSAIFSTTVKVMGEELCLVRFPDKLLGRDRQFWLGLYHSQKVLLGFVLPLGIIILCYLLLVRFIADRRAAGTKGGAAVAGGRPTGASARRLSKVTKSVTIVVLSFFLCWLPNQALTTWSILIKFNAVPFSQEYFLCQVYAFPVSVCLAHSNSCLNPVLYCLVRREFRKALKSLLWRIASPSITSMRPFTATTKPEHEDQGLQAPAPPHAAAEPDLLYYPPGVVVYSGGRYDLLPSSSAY
Experimental: as §1, §2

human RXFP4 [2] = biological target: T1, human RXFP4; experiment: Receptor activation assay, CRE-controlled NanoLuc reporter; type: cell-based; details: HEK293T cells cotransfected with human RXFP4 and CRE-controlled NanoLuc reporter; 1.0 μM forskolin; 37 °C, 4 h; mean ± SE, n = 3; SEM
Experimental: Figure 4 Receptor activation activities of the mature INSL5 and R3/I5 mutants towards RXFP3 and RXFP4. HEK293T cells transiently cotransfected by human RXFP3 or human RXFP4 and a CRE-controlled NanoLuc reporter were used for the activation assays. The measured data were expressed as mean ± SE (n = 3) and fitted to sigmoidal or linear curves using the software SigmaPlot 10.0.
The receptor activation assays of the mature INSL5 and R3/I5 mutants were carried out using a cAMP-response element (CRE)-controlled NanoLuc reporter according to our previous procedure. Briefly, HEK293T cells were transiently cotransfected with the expression construct of human RXFP3 or human RXFP4 and the CRE-controlled NanoLuc reporter vector pNL1.2/CRE. Next day, the transfected cells were trypsinised, seeded into a 96-well plate, and continuously cultured for 24–36 h to ~90% confluence. To start activation assay, the medium was removed and the activation solution (serum-free DMEM medium plus 1% bovine serum albumin) containing 1.0 μM of forskolin and varied concentrations of peptide was added (100 μl/well). After being continuously cultured at 37 °C for 4 h, the activation solution was removed and the cells were lysed by lysis solution (100 μl/well, from Promega). The cell lysate was then transferred to a white opaque 96-well plate (50 μl/well), mixed with the freshly diluted substrate (50 μl/well), and bioluminescence was immediately measured on a SpectraMax M5 plate reader (Molecular Devices) using the luminescence mode. The measured bioluminescence data were expressed as mean ± SE (n = 3) and fitted to sigmoidal or linear curves using the SigmaPlot10.0 software.

T1 sequence (Q8TDU9 whole entry): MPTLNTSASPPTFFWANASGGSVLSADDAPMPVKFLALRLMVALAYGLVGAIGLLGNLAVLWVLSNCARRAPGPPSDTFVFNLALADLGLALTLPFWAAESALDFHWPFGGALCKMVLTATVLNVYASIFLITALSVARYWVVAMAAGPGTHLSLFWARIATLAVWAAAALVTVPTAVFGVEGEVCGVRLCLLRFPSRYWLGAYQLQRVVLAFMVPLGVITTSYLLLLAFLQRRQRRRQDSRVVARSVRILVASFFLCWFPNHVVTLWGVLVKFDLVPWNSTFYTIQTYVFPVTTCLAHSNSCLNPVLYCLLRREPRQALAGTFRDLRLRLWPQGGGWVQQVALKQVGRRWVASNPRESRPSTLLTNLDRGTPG

Row | Molecule | pIC50 RXFP4 (human RXFP4 [1]) | pIC50 RXFP3 (human RXFP3) | pEC50 RXFP4 (human RXFP4 [2]) | fold lower binding potency towards RXFP4 compared with wild-type INSL5 (human RXFP4 [1]; lower than wild-type INSL5)
1 | CC[C@H](C)[C@@H]1NC(=O)[C@H](Cc2ccc(O)cc2)NC(=O)[C@H]([C@@H](C)CC)NC(=O)[C@H](C(C)C)NC(=O)[C@H]([C@@H](C)O)NC(=O)[C@H](CCCNC(=N)N)NC(=O)[C@H]([C@@H](C)CC)NC(=O)[C@H](Cc2ccc(O)cc2)NC(=O)[C@H](CCC(=O)O)NC(=O)[C@H](CCCNC(=N)N)NC(=O)CNC(=O)[C@@H](NC(=O)[C@H](CC(C)C)NC(=O)[C@H](CCCNC(=N)N)NC(=O)[C@@H](NC(=O)[C@H](CO)NC(=O)[C@H](CCC(=O)O)NC(=O)[C@@H](N)CCCCN)C(C)C)CSSC[C@@H]2NC(=O)[C@@H](NC(=O)[C@H](CC(C)C)NC(=O)[C@@H](NC(=O)[C@H](CCC(N)=O)NC(=O)[C@H](CC(C)C)NC(=O)[C@H](CC(=O)O)NC(=O)[C@@H](N)CCC(N)=O)[C@@H](C)O)CSSC[C@H](NC(=O)CNC(=O)[C@H](CC(=O)O)NC(=O)[C@H]([C@@H](C)O)NC2=O)C(=O)N[C@@H](CO)C(=O)N[C@@H](CCSC)C(=O)N[C@@H]([C@@H](C)O)C(=O)N[C@@H](CC(=O)O)C(=O)N[C@@H](CC(C)C)C(=O)N[C@@H](CO)C(=O)N[C@@H](C)C(=O)N[C@@H](CC(C)C)C(=O)N[C@H](C(=O)O)CSSC[C@@H](C(=O)NCC(=O)NCC(=O)N[C@@H](CO)C(=O)N[C@@H](CCCNC(=N)N)C(=O)N[C@@H](Cc2c[nH]c3ccccc23)C(=O)O)NC1=O [[L(B9)R,A(B20)G,S(B21)G]INSL5] |  |  |  | ~ 6 fold
2 | [R(B12)L,F(B20)Y,G(B23)A,G(B24)S]R3/I5: recombinant mature two-chain R3/I5 mutant (chain 1 RAAPYGVRLCGLEFIRAVIYTCASSRW; chain 2 QDLQTLCCTDGCSMTDLSALC; disulfide (positions not given here); not fully specified; also: A-chain N-terminal pyroglutamate likely) | 7.75 ± 0.05 | 8.40 ± 0.04 |  | 
3 | [G(B23)A,G(B24)S]R3/I5: recombinant mature two-chain R3/I5 mutant (chain 1 RAAPYGVRLCGREFIRAVIFTCASSRW; chain 2 QDLQTLCCTDGCSMTDLSALC; not fully specified; two-chain, three disulfides; A-chain N-terminal pyroglutamate likely; possible unprinted extra residues as in m2) |  |  | 8.44 ± 0.04 | 

Continued, in another order:

Row | pIC50 RXFP4 (human RXFP4 [1]) | pIC50 RXFP3 (human RXFP3) | pEC50 RXFP4 (human RXFP4 [2]) | Molecule | fold lower binding potency towards RXFP4 compared with wild-type INSL5 (human RXFP4 [1]; lower than wild-type INSL5)
4 | 7.61 ± 0.05 | 8.11 ± 0.02 | 8.24 ± 0.05 | [Y(B5)E,R(B12)L,F(B20)Y,G(B23)A,G(B24)S]R3/I5: recombinant mature two-chain R3/I5 mutant (chain 1 RAAPEGVRLCGLEFIRAVIYTCASSRW; chain 2 QDLQTLCCTDGCSMTDLSALC; disulfide (positions not given here); not fully specified; also: A-chain N-terminal pyroglutamate likely) | 
5 |  |  | 8.71 ± 0.06 | [R(B12)L,F(B20)Y,G(B23)A,G(B24)S]R3/I5: recombinant mature two-chain R3/I5 mutant (chain 1 RAAPYGVRLCGLEFIRAVIYTCASSRW; chain 2 QDLQTLCCTDGCSMTDLSALC; not fully specified; two-chain, three disulfides; A-chain N-terminal pyroglutamate likely; possible unprinted extra residues as in m2) | 
6 | 8.06 ± 0.04 | 8.61 ± 0.03 |  | [G(B23)A,G(B24)S]R3/I5: recombinant mature two-chain R3/I5 mutant (chain 1 RAAPYGVRLCGREFIRAVIFTCASSRW; chain 2 QDLQTLCCTDGCSMTDLSALC; disulfide (positions not given here); not fully specified; also: A-chain N-terminal pyroglutamate likely) | 
